Measured values published in publication PMC11795597, “The NADH-dependent flavin reductase ThdF follows an ordered sequential mechanism though crystal structures reveal two FAD molecules in the active site” (The Journal of Biological Chemistry, 2024).

Key:
[1] = target: T1, ThdF (Streptomyces albogriseolus, UniProt A0A1B1V585); test: steady-state inhibition kinetics (NADH turnover at […] nm); type: biochemical
[2] = target: T2, ThdF (Streptomyces albogriseolus, UniProt A0A1B1V585); test: fluorescence anisotropy; crystal structures ([…] and […] Å) with two FAD per chain; type: binding
T2 construct: apoThdF (full length) for Kd; elastase-digested ThdF, residues about 7-167 built, for crystals
T2 sequence (A0A1B1V585 1-193): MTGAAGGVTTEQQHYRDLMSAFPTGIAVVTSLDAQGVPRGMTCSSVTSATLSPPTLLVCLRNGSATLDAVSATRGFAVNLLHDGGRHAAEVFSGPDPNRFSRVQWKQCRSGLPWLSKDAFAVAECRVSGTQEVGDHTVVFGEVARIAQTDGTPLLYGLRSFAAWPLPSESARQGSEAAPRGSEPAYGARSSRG

[3] = target: ThdF after in situ proteolysis with elastase, as crystallised (crystal forms 1 and 2) (Streptomyces albogriseolus); test: crystal structure; ThdF with elastase (in situ proteolysis), sitting drop, 20 °C; crystal form 1 (P212121) and form 2 (P21) with two FAD per chain, and form 1 soaked with NADH and dithionite; four molecules per asymmetric unit
[4] = target: T1, ThdF; test: steady-state product inhibition kinetics; type: biochemical
[5] = substrate: NC(=O)C1=CN([C@@H]2O[C@H](COP(=O)(O)OP(=O)(O)OC[C@H]3O[C@@H](n4cnc5c(N)ncnc54)[C@H](O)[C@@H]3O)[C@@H](O)[C@H]2O)C=CC1; test: purified protein
[6] = substrate: Cc1cc2nc3c(=O)[nH]c(=O)nc-3n(C[C@H](O)[C@H](O)[C@H](O)COP(=O)(O)O)c2cc1C; test: steady-state kinetics, KM as variable substrate; type: biochemical, Streptomyces albogriseolus; details: NADH
[7] = target: the molecule itself; test: crystal structure; full-length ThdF without protease, initial screening, 2.9 Å; not fully refined and not deposited

## Nc1ncnc2c1ncn2[C@@H]1O[C@H](COP(=O)(O)O)[C@@H](O)[C@H]1O [AMP]
[1]
  steady-state inhibition kinetics (NADH turnover at 340 nm): The lines intersecting on the ordinate indicate competitive inhibition of NADH by AMP.

## Cc1cc2nc3c(=O)[nH]c(=O)nc-3n(C[C@H](O)[C@H](O)[C@H](O)COP(=O)(O)OP(=O)(O)OC[C@H]3O[C@@H](n4cnc5c(N)ncnc54)[C@H](O)[C@@H]3O)c2cc1C [FAD]
[2]
  Kd: 6.8 ± 0.2 µM

## ThdF after in situ proteolysis with elastase, as crystallised (crystal forms 1 and 2) (from UniProt A0A1B1V585 6-171) (domain or fragment)
[3]
  stoichiometry N: 2

## NC(=O)c1ccc[n+]([C@@H]2O[C@H](COP(=O)([O-])OP(=O)(O)OC[C@H]3O[C@@H](n4cnc5c(N)ncnc54)[C@H](O)[C@@H]3O)[C@@H](O)[C@H]2O)c1 [NAD^+]
[4]
  steady-state product inhibition kinetics: For both substrates, NAD^+ was found to produce a noncompetitive inhibition pattern

## NC(=O)c1ccc[n+]([C@@H]2O[C@H](COP(=O)([O-])O)[C@@H](O)[C@H]2O)c1 [NMN]
[1]
  steady-state inhibition kinetics (NADH turnover at 340 nm): The NADH-dependent measurement with NMN showed intersecting lines on the ordinate, confirming competitive inhibition toward NADH

B1: ThdF (Streptomyces albogriseolus) (protein)
chain: GGVTTEQQHYRDLMSAFPTGIAVVTSLDAQGVPRGMTCSSVTSATLSPPTLLVCLRNGSATLDAVSATRGFAVNLLHDGGRHAAEVFSGPDPNRFSRVQWKQCRSGLPWLSKDAFAVAECRVSGTQEVGDHTVVFGEVARIAQTDGTPLLYGLRSFAAWPLPSESA
[5]
  Km: 19.5 ± 5.6 µM
[5]; FAD binds instead of the stacked FAD, R16 contacts the NMN ribose, H136 of the GDH motif the nicotinamide, S48 of the second protomer
  kcat: 0.26 s⁻¹

B2: NADH-dependent flavin reductase ThdF from Streptomyces albogriseolus, full length, His6-tag removed by TEV protease (enzyme, UniProt A0A1B1V585 1-193, looked up)
chain: MTGAAGGVTTEQQHYRDLMSAFPTGIAVVTSLDAQGVPRGMTCSSVTSATLSPPTLLVCLRNGSATLDAVSATRGFAVNLLHDGGRHAAEVFSGPDPNRFSRVQWKQCRSGLPWLSKDAFAVAECRVSGTQEVGDHTVVFGEVARIAQTDGTPLLYGLRSFAAWPLPSESARQGSEAAPRGSEPAYGARSSRG
notes: flavin reductase ThdF of the thienodoline biosynthetic gene cluster, Streptomyces albogriseolus; 193 residues (truncation to 1-168 removed amino acids 169-193); residual amino acids from TEV protease digestion are left at the N terminus; Codon-optimised synthetic gene in pETM-11; copurifies with FAD (occupancy about 124%); the PDB entries 9fd4-9fd6 come from this protein after elastase digestion; …
[6]
  Km: 0.28 ± 0.07 µM
  kcat: 0.2 ± 0.08 s⁻¹
[7]
  stoichiometry N: 2
